Test results: article PMC7144210

Key:
[1] = target: Fc-tagged fibre 1 of the novel FAdV-4 (fowl adenovirus serotype 4 (FAdV-4), strain HLJFAd15)
[2] = target: Fc-tagged fibre 1 of the novel FAdV-4 (fowl adenovirus serotype 4 (FAdV-4), strain HLJFAd15); remark: listed apart in the source

Substance | block of FAdV-4 infection of LMH cells (qPCR at 24 hpi) after pre-incubation of the virus with 3.125–12.5 ng/μl soluble CAR protein; Fc protein as negative control [1] [%] | block of FAdV-4 infectivity in LMH cells (qPCR at 24 hpi) after pre-incubation of the virus with 12.5 or 25.0 ng/μl D2-CAR; 78% at 12.5 ng/μl, 99.9% at 25 ng/μl [2] [%]
Fc-tagged CAR protein, soluble (Fc fusion) | 76 to 80 | 
D2 domain of chicken CAR, soluble, His-tagged (domain or fragment) |  | 99.9
